Results published in US20170355744A1 (published 2017).

Biological target: T1, Untagged Naglu (human, UniProt P54802 24-743)
T1 construct: also called untagged Naglu protein; alpha-N-acetylglucosaminidase
T1 sequence: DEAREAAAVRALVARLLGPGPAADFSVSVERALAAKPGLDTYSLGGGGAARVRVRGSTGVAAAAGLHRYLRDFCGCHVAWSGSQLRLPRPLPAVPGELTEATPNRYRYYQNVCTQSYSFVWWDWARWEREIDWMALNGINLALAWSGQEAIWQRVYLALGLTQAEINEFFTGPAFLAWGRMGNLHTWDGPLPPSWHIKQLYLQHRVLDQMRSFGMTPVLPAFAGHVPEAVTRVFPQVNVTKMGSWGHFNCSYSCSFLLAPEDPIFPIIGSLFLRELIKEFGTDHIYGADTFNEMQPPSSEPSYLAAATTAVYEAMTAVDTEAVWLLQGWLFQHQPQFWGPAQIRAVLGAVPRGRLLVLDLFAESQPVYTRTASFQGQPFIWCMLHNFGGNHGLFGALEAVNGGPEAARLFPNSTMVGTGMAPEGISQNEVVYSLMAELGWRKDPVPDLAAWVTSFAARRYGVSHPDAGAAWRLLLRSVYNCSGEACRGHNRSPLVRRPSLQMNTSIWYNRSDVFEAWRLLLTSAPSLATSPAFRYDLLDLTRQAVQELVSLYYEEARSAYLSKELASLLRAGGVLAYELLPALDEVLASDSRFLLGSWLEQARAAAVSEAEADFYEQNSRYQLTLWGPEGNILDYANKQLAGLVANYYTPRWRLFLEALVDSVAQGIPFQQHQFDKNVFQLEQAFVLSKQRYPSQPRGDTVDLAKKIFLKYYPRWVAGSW
Assay: IGF2R competitive binding assay (displacement of biotinylated IGF-II from plate-coated IGFIIR domains 10-13)
Method: To measure the ability of the Naglu fusion protein constructs to bind to the IGF-II receptor a competitive binding assay is carried out. A fragment of the IGFIIR involved with IGF-II binding (domains 10-13, named protein 1288) is coated onto 96-well plates. Biotinylated IGF-II is incubated with the receptor in the presence of increasing amounts of competitors: either control IGF-II (non-biotinylated), or fusion protein sample (containing an IGF-II-derived GILT epitope tag). Receptor-bound biotinylated IGF-II is detected with streptavidin conjugated to horseradish peroxidase (HRP) and a chemiluminescent HRP substrate. The ability of the fusion protein to inhibit binding of biotinylated IGF-II to the IGFIIR is calculated from inhibition curves and reported as an IC₅₀ value (concentration required to achieve 50% binding inhibition).
For the assay, IGFIIR is coated in a white Reacti-bind plate (Pierce, Cat#437111) at 0.5 μg/well in a volume of 100 μl (69.6 nM/per well) in coating buffer. The plate is sealed and incubated overnight at room temperature. The plate is then washed 3× with wash buffer, blocked with blocking buffer and then washed again 3× with wash buffer (300 μl/well).

binding result: no binding
B1: fragment of the IGFIIR involved with IGF-II binding (domains 10-13, named protein 1288) (receptor, UniProt P11717 1367-1989, looked up)
chain: TECSFKDGAGNSFDLSSLSRYSDNWEAITGTGDPEHYLINVCKSLAPQAGTEPCPPEAAACLLGGSKPVNLGRVRDGPQWRDGIIVLKYVDGDLCPDGIRKKSTTIRFTCSESQVNSRPMFISAVEDCEYTFAWPTATACPMKSNEHDDCQVTNPSTGHLFDLSSLSGRAGFTAAYSEKGLVYMSICGENENCPPGVGACFGQTRISVGKANKRLRYVDQVLQLVYKDGSPCPSKSGLSYKSVISFVCRPEARPTNRPMLISLDKQTCTLFFSWHTPLACEQATECSVRNGSSIVDLSPLIHRTGGYEAYDESEDDASDTNPDFYINICQPLNPMHGVPCPAGAAVCKVPIDGPPIDIGRVAGPPILNPIANEIYLNFESSTPCLADKHFNYTSLIAFHCKRGVSMGTPKLLRTSECDFVFEWETPVVCPDEVRMDGCTLTDEQLLYSFNLSSLSTSTFKVTRDSRTYSVGVCTFAVGPEQGGCKDGGVCLLSGTKGASFGRLQSMKLDYRHQDEAVVLSYVNGDRCPPETDDGVPCVFPFIFNGKSYEECIIESRAKLWCSTTADYDRDHEWGFCRHSNSYRTSSIIFKCDEDEDIGRPQVFSEVRGCDVTFEWKTKVVCPP
notes: domain: domains 10-13; Coated on the plate at 0.5 ug/well; also called IGF2R
